For one molecule, Kd results are on record in publication PMC8463877 (2021).

For test [1], the target named is T1, α-synuclein amyloid fibrils (unlabeled) (UniProt P37840 1-140). As to the kind of experiment: 37 °C.
For test [2], the target named is T1, α-synuclein amyloid fibrils (unlabeled). As to the kind of experiment: 30 °C.
The target is the same in test [3]. Put plainly: 17 °C.
The target is the same in test [4]. Put plainly: 7 °C.
For test [5] the target is unchanged. Put plainly: 10 °C.

B1: GFP-labeled αB-crystallin (αB-c-TEV site-GFP-His tag) (natural protein)
chain: MDIAIHHPWIRRPFFPFHSPSRLFDQFFGEHLLESDLFPTSTSLSPFYLRPPSFLRAPSWFDTGLSEMRLEKDRFSVNLDVKHFSPEELKVKVLGDVIEVHGKHEERQDEHGFISREFHRKYRIPADVDPLTITSSLSSDGVLTVNGPRKQVSGPERTIPITREEKPAVTAAPKK
B1: the Kd in test [1] is below 0.0103 µM; in test [2] it was 0.0575 µM; in test [3], 6.1 µM; in test [4] it was 45.3 µM; in test [5], 12.3 µM.
